The numbers were not newly measured in article PMC2663012, which cites them from elsewhere.

The series has as its target PKR (Homo sapiens) (UniProt P19525). Nature of the series: analytical ultracentrifugation.

In the case of PKR (from UniProt P19525), the Kd was 450 µM.

By Kd is commonly meant a measure of binding affinity in units of concentration.
